# Measurements: patent US20220380471A1 (US Dept. of Health and Human Services, published 2022)
# T1: rat B7H3-His (rat, UniProt Q7TPB4 29-244, limits assumed)
# T1 construct: not shown: His tag
# T1 sequence (looked up): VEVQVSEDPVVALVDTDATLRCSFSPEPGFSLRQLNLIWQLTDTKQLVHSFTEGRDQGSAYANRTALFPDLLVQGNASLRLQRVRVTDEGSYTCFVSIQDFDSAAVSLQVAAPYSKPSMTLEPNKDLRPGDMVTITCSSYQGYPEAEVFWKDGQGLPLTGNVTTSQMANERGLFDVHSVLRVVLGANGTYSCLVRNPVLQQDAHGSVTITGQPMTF
# T2: monkey B7H3-His (monkey)
# T2 chain: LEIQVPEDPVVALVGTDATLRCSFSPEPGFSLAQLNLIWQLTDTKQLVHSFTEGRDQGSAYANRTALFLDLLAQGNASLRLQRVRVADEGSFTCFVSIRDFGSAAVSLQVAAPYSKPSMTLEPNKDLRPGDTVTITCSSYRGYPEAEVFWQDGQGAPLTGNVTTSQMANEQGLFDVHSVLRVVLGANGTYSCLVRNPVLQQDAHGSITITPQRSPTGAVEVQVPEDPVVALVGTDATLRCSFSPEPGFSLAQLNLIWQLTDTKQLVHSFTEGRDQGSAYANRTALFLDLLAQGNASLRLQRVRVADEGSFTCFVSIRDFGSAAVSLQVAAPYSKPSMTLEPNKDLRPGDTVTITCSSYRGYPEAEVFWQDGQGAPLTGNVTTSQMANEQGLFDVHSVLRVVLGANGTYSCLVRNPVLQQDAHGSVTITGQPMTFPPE
# T3: human B7H3 (human, UniProt Q5ZPR3 29-466, limits assumed)
# T3 construct: also called human B7H3 protein
# T3 sequence (looked up): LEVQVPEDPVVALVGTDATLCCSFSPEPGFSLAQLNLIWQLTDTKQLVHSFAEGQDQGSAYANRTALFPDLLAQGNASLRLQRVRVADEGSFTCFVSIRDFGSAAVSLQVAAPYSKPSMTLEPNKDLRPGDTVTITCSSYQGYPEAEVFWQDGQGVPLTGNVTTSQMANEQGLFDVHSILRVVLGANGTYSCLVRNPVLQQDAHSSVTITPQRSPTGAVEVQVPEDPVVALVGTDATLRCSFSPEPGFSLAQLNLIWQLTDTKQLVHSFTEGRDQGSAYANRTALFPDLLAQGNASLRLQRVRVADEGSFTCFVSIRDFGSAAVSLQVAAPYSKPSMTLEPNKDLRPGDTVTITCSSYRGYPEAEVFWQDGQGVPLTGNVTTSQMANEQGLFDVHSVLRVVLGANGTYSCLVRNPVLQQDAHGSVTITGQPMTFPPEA
# T4: B7H3 (CD276) on MC38-CD276+ cells
# T4 construct: whole, on cells; MC38-CD276KO cells served as the negative control; also called MC38-B7H3+
# T4 sequence (Q5ZPR3 1-534, species assumed, looked up): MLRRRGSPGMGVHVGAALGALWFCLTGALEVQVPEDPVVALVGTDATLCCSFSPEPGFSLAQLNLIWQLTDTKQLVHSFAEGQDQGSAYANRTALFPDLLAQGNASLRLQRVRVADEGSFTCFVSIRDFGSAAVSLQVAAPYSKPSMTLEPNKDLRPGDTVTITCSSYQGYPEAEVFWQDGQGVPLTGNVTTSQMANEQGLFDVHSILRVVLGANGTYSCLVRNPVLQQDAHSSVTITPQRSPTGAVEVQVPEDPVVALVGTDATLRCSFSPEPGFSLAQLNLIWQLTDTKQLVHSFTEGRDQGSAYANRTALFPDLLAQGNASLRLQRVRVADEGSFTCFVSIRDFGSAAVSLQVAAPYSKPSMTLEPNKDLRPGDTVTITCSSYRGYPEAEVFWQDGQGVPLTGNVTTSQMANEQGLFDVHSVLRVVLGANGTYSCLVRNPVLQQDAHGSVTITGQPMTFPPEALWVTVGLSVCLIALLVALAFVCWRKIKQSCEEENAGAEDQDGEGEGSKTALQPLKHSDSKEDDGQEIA
# B1: RWG8 (VHH)
# VHH: DVQLVESGGGLVQPGGSLRLSCAASGFTFSRYWMGWFRQAPGKGVEWVSTINSGGGSTYYADSVKGRFTISRDNAKNTLYLQLNNLKTEDTAMYYCAKEQWRTGSRGQGTQVTVSS
# notes: Camel VHH; tag not described; also called camel antibody RWG8
# B2: RWB12 (VHH)
# VHH: QVQLVESGGGSVQVGGSLRLSCAASGFTYNSYSVGWFRQAPGKEREGVAAINSGGSSTYYAASVKGRFTISRDNAKNTVYLQMNSLKPEDTAMYYCAARSPSPLTFQTRTLREDSYNYWGQGTQVTVSS
# notes: Camel VHH; tag not described; also called camel antibody RWB12
# B3: RWC4 (VHH)
# VHH: EVQLVESGGGSVQAGGSLRLSCVASEDSTSAMCMGWFRQAPGKEREGVACINPTGEVTWYGDSVKGRFTISRDTVKKIVYLQMNSLKPEDTAMYYCAARVTYGGDWSTDTDYEYWGQGTQVTVSS
# notes: Camel VHH; tag not described; also called camel antibody RWC4
# B4: RWG4 (VHH)
# VHH: QVQLVQSGGGLVQPGGSLRLSCAASGFTFSVYWFYWVRQAPRQGLEWVSTIASNGSTYYSDSVKGRFTISRDNAKNTVYLQMNSLKPEDTAVYYCVSDPDYYSDYERAYKFWAQGTQVTVSS
# notes: Camel VHH; tag not described; also called camel antibody RWG4
# Biological target: Non-relevant antigen
# Test: phage ELISA, cross-species
# Method in brief: (§1)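 Libraries from eight individual camels supplied the camel VHH phage, which were panned on recombinant B7H3-Fc protein for 3 rounds. Phage ELISA then measured how the selected phage bound to immobilised antigens, namely human and other-species B7H3 or control proteins, with the ELISA signal as the recorded value.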
row,ELISA signal,Binder
1,0.0659,B1
2,0.0597,B2
3,0.0764,B3
4,0.14,B4

# Biological target: T1, rat B7H3-His
# Test: phage ELISA, cross-species
# Method in brief: as §1
row,ELISA signal,Binder
1,2.44,B1
2,2.07,B2
3,0.292,B4

# Biological target: T2, monkey B7H3-His
# Test: phage ELISA, cross-species
# Method in brief: as §1
row,ELISA signal,Binder
1,2.43,B1
2,2.31,B2
3,1.54,B3
4,0.19,B4

# Biological target: T3, human B7H3
# Test: phage ELISA, cross-species
# Method in brief: as §1
row,ELISA signal,Binder
1,2.67,B1
2,2.74,B2
3,2.5,B3
4,1.72,B4

# Biological target: T4, B7H3 (CD276) on MC38-CD276+ cells
# Test: flow cytometry on MC38-CD276+ cells, VHH at 2 ug/ml
row,Positive rates [%],Binder
1,0.31,B1
2,0.18,B2
3,84.7,B3
4,23.4,B4

# Biological target: B7H3 R&D
# Test: ELISA; row B7H3 R&D; well 1 of 3
# Method in brief: (§2)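 The values are ELISA signals for binding of purified camel VHH nanobodies to immobilised recombinant B7H3 fusion proteins and to non-B7H3 comparison proteins. The nanobodies came from phage panning on recombinant B7H3-Fc.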
row,ELISA reading (name not given),Binder
1,0.0696,B1
2,0.0582,B2
3,0.132,B3

# Biological target: PD-L1
# Sequence (Q9NZQ7 whole entry): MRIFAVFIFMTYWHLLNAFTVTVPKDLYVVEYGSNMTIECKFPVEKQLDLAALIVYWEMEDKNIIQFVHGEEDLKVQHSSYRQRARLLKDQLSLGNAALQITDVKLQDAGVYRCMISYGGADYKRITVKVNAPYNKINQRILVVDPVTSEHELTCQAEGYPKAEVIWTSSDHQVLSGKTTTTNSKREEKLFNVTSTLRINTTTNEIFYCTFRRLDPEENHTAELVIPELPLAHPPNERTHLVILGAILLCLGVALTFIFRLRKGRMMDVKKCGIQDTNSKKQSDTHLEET
# Test: ELISA, purified VHH, cross-reaction
row,ELISA signal,Binder
1,0.0715,B1
2,0.0454,B2
3,0.043,B3
4,0.0614,B4

# Biological target: T2, monkey B7H3-His
# Test: ELISA; row Monkey; well 3 of 3
# Method in brief: as §2
row,ELISA reading (name not given),Binder
1,0.195,B1
2,0.178,B2
3,1.04,B3

# Biological target: T5, Irrelevant antigen
# T5 construct: negative control
# Test: ELISA; row Irrelevant antigen; well 2 of 3
# Method in brief: as §2
row,ELISA reading (name not given),Binder
1,0.098,B1
2,0.0864,B2
3,0.0888,B3

# Biological target: T5, Irrelevant antigen
# Test: ELISA; row Irrelevant antigen; well 1 of 3
# Method in brief: as §2
row,ELISA reading (name not given),Binder
1,0.104,B1
2,0.08,B2
3,0.0845,B3

# Biological target: T2, monkey B7H3-His
# Test: ELISA; row Monkey; well 2 of 3
# Method in brief: as §2
row,ELISA reading (name not given),Binder
1,0.198,B1
2,0.201,B2
3,1,B3

# Biological target: HN3-Fc
# Test: ELISA; row HN3-Fc; well 2 of 3
# Method in brief: as §2
row,ELISA reading (name not given),Binder
1,0.0514,B1
2,0.0616,B2
3,0.046,B3

# Biological target: T3, human B7H3
# Test: ELISA; row Human; well 3 of 3
# Method in brief: as §2
row,ELISA reading (name not given),Binder
1,0.164,B1
2,0.199,B2
3,0.938,B3

# Biological target: HN3-Fc
# Test: ELISA; row HN3-Fc; well 1 of 3
# Method in brief: as §2
row,ELISA reading (name not given),Binder
1,0.05,B1
2,0.0533,B2
3,0.0801,B3

# Biological target: B7H3 R&D
# Test: ELISA; row B7H3 R&D; well 3 of 3
# Method in brief: as §2
row,ELISA reading (name not given),Binder
1,0.0646,B1
2,0.0955,B2
3,0.156,B3

# Biological target: B7H3 R&D
# Test: ELISA; row B7H3 R&D; well 2 of 3
# Method in brief: as §2
row,ELISA reading (name not given),Binder
1,0.0632,B1
2,0.0559,B2
3,0.151,B3
